Data reported in patent US20120039874 (published 2012).

T1: human AILIM-IgFc (human, UniProt Q9Y6W8)
T1 chain: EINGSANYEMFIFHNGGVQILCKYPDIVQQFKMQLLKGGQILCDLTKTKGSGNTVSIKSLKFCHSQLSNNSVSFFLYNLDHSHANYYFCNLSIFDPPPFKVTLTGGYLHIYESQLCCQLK


Molecular target: T1, human AILIM-IgFc
Test: SPR

Binder	Kd
AII289 (JMab-138) (antibody, V domains shown) VH: EVQLVESGGGLVQPGGSLRLSCAASGFTFSSYDMHWVRQATGKGLEWVSAIGTAGDTYYPGSVKGRFTISRENAKNSLYLQMNSLRAGDTAVYYCVRDNRKVTHEHYYYYGMDVWGQGTTVTVSS VL: EIVLTQSPGTLSLSPGERATLSCRASQNIRSSYLAWYQQKPGQAPGLLIYGASSRATGIPDRFSGSGSGTDFTLTISRLEPEDFAVYYCQQFGSSPMCSFGQGTKLEIKR	1.1 nM
AII394 (JMab-139) (antibody, V domains shown) VH: EVQLVESGGGLVQPGGSLRLSCAASGFTFSSYDMHWVRQATGKGLEWVSAIGTAGDTYYPGSVKGRFTISRENAKNSLYLQMNSLRAGDTAVYYCVRDKRTVTHEHYYYYGMDVWGQGTTVTVSS VL: EIVLTQSPGTLSLSPGERATLSCRASQSISSSSLAWYQQKPGQAPGLLIFGASSRATGIPDRFSGSGSGTDFTLTISRLEPEDFAVYYCQQFGSSPMCSFGQGTKLEIKR	0.77 nM
